Experimental data reported in US20070009547A1 (INSTITUT PASTEUR, published 2007).

Target: T1, CFP-10 carrying an N-terminal HIS tag, produced by BCG::2F9-HIS-EsxB (Mycobacterium tuberculosis, UniProt P9WNK5 2-100)
T1 sequence: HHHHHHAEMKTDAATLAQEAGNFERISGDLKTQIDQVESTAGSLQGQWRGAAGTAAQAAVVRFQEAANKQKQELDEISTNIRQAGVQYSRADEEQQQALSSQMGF
Experiment: Ni-NTA co-purification, Coomassie gel and western blot

B1: 6 kDa early secreted antigenic target (ESAT-6), native, encoded by esxA (other)
chain: TEQQWNFAGIEAAASAIQGNVTSIHSLLDEGKQSLTKLAAAWGGSGSEAYQGVQQKWDATATELNNALQNLARTISEAGQAMASTEGNVTGMFA
  binding result: binds
